This passage reports protein stability index results from the supplement of paper PMC10567573.

B1: LRRC45 (parent)
chain: DLSAANEKNLLLQNQVDELERKFR
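Further: lentivirally expressed fusions sorted by FACS into six bins by GFP to DsRed ratio, PSI derived from sequencing read proportions per bin multiplied by bin number.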

Variants of B1 are the subject of this data set. Put plainly: protein stability index of a GFP-peptide fusion (GPS, HEK-293T) (PSI 1-6); higher = more stable. Particulars: c terminus: a fixed tail appended.
Regarding DLSAANEKNLLLINQVDELERKFR, the protein stability index was found to be 3.6.
For the variant DLSAANEKNLLLRNQVDELERKFR, the protein stability index is 3.74.
With DLSAANEKNLLLENQVDELERKFR, the protein stability index stood at 4.71.
As for DLSAANEKNLLLTNQVDELERKFR, the figure is 4.11; as for DLSAANEKNLLLNNQVDELERKFR, 3.68.
For DLSAANEKNLLLYNQVDELERKFR, the protein stability index is 3.42.
As for DLSAANEKNLLLHNQVDELERKFR, the figure is 3.66.
As for DLSAANEKNLLLMNQVDELERKFR, the figure is 3.71.
As for DLSAANEKNLLLVNQVDELERKFR, the figure is 4.53; as for DLSAANEKNLLLQEQVDELERKFR, 4.19.
In the case of DLSAANEKNLLLQQQVDELERKFR, the protein stability index was 4.49.
For the variant DLSAANEKNLLLQSQVDELERKFR, the protein stability index stood at 3.51.
As for DLSAANEKNLLLQPQVDELERKFR, the figure is 3.69.
DLSAANEKNLLLQCQVDELERKFR: the protein stability index stood at 4.
For the variant DLSAANEKNLLLQAQVDELERKFR, the protein stability index amounted to 3.95.
As for DLSAANEKNLLLQTQVDELERKFR, the figure is 3.81; as for DLSAANEKNLLLQFQVDELERKFR, 3.02; as for DLSAANEKNLLLQRQVDELERKFR, 3.76.
As for DLSAANEKNLLLQHQVDELERKFR, the figure is 3.62; as for DLSAANEKNLLLQVQVDELERKFR, 3.62; as for DLSAANEKNLLLQLQVDELERKFR, 3.43.
Regarding DLSAANEKNLLLQGQVDELERKFR, the protein stability index was determined as 4.11.
As for DLSAANEKNLLLQDQVDELERKFR, the figure is 4.54; as for DLSAANEKNLLLQKQVDELERKFR, 3.69.
As to DLSAANEKNLLLQYQVDELERKFR, the protein stability index amounted to 3.65.
With DLSAANEKNLLLQMQVDELERKFR, the protein stability index was 3.54.
As for DLSAANEKNLLLQIQVDELERKFR, the figure is 3.05; as for DLSAANEKNLLLQWQVDELERKFR, 3.63; as for DLSAANEQNLLLQNQVDELERKFR, 4.12.
As for DLSAANETNLLLQNQVDELERKFR, the figure is 4.31.
As for DLSAANEVNLLLQNQVDELERKFR, the figure is 3.85.
Consider DLSAANERNLLLQNQVDELERKFR, for which the protein stability index came out at 4.15.
As for DLSAANEYNLLLQNQVDELERKFR, the figure is 3.63.
As for DLSAANEPNLLLQNQVDELERKFR, the figure is 4.35; as for DLSAANEINLLLQNQVDELERKFR, 3.43; as for DLSAANENNLLLQNQVDELERKFR, 4.
On to DLSAANEHNLLLQNQVDELERKFR, for which the protein stability index amounted to 4.06.
In the case of DLSAANEFNLLLQNQVDELERKFR, the protein stability index is 3.85.
Regarding DLSAANESNLLLQNQVDELERKFR, the protein stability index was found to be 4.36.
As for DLSAANECNLLLQNQVDELERKFR, the figure is 3.83; as for DLSAANEENLLLQNQVDELERKFR, 4.56.
As for DLSAANEDNLLLQNQVDELERKFR, the figure is 4.21.
Consider DLSAANEGNLLLQNQVDELERKFR, for which the protein stability index stood at 4.17.
As for DLSAANEANLLLQNQVDELERKFR, the figure is 4.62; as for DLSAANEWNLLLQNQVDELERKFR, 3.6.
With DLSAANELNLLLQNQVDELERKFR, the protein stability index stood at 3.6.
As for DLSAANEMNLLLQNQVDELERKFR, the figure is 4.
Consider DLSAANEKNLLLQNQVKELERKFR, for which the protein stability index was determined as 3.55.
Turning to DLSAANEKNLLLQNQVGELERKFR, the protein stability index came out at 3.46.
As for DLSAANEKNLLLQNQVEELERKFR, the figure is 4.39; as for DLSAANEKNLLLQNQVLELERKFR, 3.24.
Take DLSAANEKNLLLQNQVAELERKFR: the protein stability index was 3.58.
As for DLSAANEKNLLLQNQVFELERKFR, the figure is 2.81; as for DLSAANEKNLLLQNQVHELERKFR, 2.99; as for DLSAANEKNLLLQNQVIELERKFR, 3.01.
As for DLSAANEKNLLLQNQVCELERKFR, the figure is 3.24; as for DLSAANEKNLLCQNQVDELERKFR, 4.31; as for DLSAANEKNLLSQNQVDELERKFR, 4.03.
For DLSAANEKNLLHQNQVDELERKFR, the protein stability index came to 4.
As for DLSAANEKNLLAQNQVDELERKFR, the figure is 4.37; as for DLSAANEKNLLEQNQVDELERKFR, 4.61; as for DLSAANEKNLLYQNQVDELERKFR, 4.08.
For DLSAANEKNLLWQNQVDELERKFR, the protein stability index turned out to be 3.48.
Turning to DLSAANEKNLLKQNQVDELERKFR, the protein stability index turned out to be 3.77.
As for DLSAANEKNLLNQNQVDELERKFR, the figure is 4.01; as for DLSAANEKNLLQQNQVDELERKFR, 4.19; as for DLSAANEKNLLGQNQVDELERKFR, 4.03.
As for DLSAANEKNLLTQNQVDELERKFR, the figure is 3.64; as for DLSAANEKNLLDQNQVDELERKFR, 4.46.
Consider DLSAANEKNLLVQNQVDELERKFR, for which the protein stability index is 4.36.
As for DLSAANEKNLLIQNQVDELERKFR, the figure is 4.25; as for DLSAANEKNLLRQNQVDELERKFR, 3.98; as for DLSAANEKNLLPQNQVDELERKFR, 4.18.
As for DLSAANEKNLLMQNQVDELERKFR, the figure is 3.87; as for DLSAANEKNLLFQNQVDELERKFR, 4.09.
As for DLSAANEKNLLLQNQYDELERKFR, the protein stability index came out at 3.6.
As to DLSAANEKNLLLQNQIDELERKFR, the protein stability index worked out at 4.
For the variant DLSAANEKNLLLQNQHDELERKFR, the protein stability index came to 4.08.
As for DLSAANEKNLLLQNQNDELERKFR, the figure is 4.24; as for DLSAANEKNLLLQNQGDELERKFR, 3.69.
As for DLSAANEKNLLLQNQEDELERKFR, the figure is 4.72.
DLSAANEKNLLLQNQFDELERKFR: the protein stability index amounted to 3.38.
As for DLSAANEKNLLLQNQLDELERKFR, the figure is 4.05; as for DLSAANEKNLLLQNQSDELERKFR, 4.32.
As for DLSAANEKNLLLQNQRDELERKFR, the figure is 4.17.
As for DLSAANEKNLLLQNQQDELERKFR, the figure is 4.29; as for DLSAANEKNLLLQNQDDELERKFR, 4.12; as for DLSAANEKNLLLQNQCDELERKFR, 3.88.
Take DLSAANEKNLLLQNQADELERKFR: the protein stability index turned out to be 4.48.
As for DLSAANEKNLLLQNQPDELERKFR, the figure is 4.09; as for DLSAANEKNLLLQNQTDELERKFR, 3.66.
As for DLSAANEKNLLLQNQMDELERKFR, the figure is 3.79; as for DLSAANEKNLLLQNQKDELERKFR, 4.42.
As for DLSAANEKNLLLQNQWDELERKFR, the figure is 3.55.
